Assay results reported in patent US20110070245.

target: IMP-1 (IGF2BP1) (Homo sapiens) (UniProt Q9NZI8); test: pulldown; conditions: RIP-microarray, A549 cells
Sequence (Q9NZI8 whole entry): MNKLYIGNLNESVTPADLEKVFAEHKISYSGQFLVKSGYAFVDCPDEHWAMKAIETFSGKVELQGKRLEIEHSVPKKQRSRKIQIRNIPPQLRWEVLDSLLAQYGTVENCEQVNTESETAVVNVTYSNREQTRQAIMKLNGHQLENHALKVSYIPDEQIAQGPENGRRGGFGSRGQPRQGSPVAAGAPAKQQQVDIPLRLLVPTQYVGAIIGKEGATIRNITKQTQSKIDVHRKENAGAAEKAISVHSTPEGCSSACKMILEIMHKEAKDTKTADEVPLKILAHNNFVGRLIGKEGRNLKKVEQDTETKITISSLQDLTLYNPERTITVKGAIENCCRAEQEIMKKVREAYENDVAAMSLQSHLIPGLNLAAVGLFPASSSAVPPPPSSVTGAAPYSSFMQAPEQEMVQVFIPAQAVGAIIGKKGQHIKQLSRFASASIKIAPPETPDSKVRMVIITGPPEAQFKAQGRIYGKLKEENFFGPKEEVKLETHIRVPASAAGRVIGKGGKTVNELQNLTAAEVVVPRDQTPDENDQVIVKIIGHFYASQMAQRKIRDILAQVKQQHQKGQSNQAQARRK

In order of falling binding signal (fold IP/total RNA):
1. RAN mRNA  81.9
2. DDX1 mRNA  34.2
3. SYNGR3 mRNA  12.3
4. CRYAA mRNA  9.77
5. YTHDF1 mRNA  7.99
6. UBE2S mRNA  6.78
7. AMIGO2 mRNA  5.65
8. PDF mRNA  4.18
9. MGC27277 mRNA  3.43
10. C20orf142 mRNA  3.21
11. L3MBTL3 mRNA  3.19
12. LPGAT1 mRNA  3.14
13. PTP4A1 mRNA  3
14. LASP1 mRNA  2.66
15. C17orf39 mRNA  2.57
16. SYNJ2 mRNA  2.56
17. HMBS mRNA  2.48
18. CPSF6 mRNA  2.24
19. RNF20 mRNA  2.01

same assay, conditions: RNA immunoprecipitation (FLAG then HA) and cDNA microarray, A549 cells

In the case of SMAD3 mRNA, the binding signal (fold IP/total RNA) is reported as 720.
